The values below come from paper PMC6108849, “Heteromeric RNP Assembly at LINEs Controls Lineage-Specific RNA Processing”.

The target of series [1] is rPTBP1;rMATR3 PRI-RRMs (human?;human?, UniProt P26599;P43243 1-557;341-592, |). As to the kind of experiment: UV crosslinking; PTBP1 crosslinking retained at excess rMATR3; heteromeric complex; 30 C 20 min, 10 fmol RNA, UV crosslink on ice (1920 mJ), RNase A1/T1 digestion, 15% denaturing PAGE; buffer, salt and pH not stated. Conditions: protein: recombinant;recombinant; (HisTrap purified); copies: 1;1; label: 32P-UTP.
Sequence of rPTBP1;rMATR3 PRI-RRMs (P26599 whole entry, one chain of several): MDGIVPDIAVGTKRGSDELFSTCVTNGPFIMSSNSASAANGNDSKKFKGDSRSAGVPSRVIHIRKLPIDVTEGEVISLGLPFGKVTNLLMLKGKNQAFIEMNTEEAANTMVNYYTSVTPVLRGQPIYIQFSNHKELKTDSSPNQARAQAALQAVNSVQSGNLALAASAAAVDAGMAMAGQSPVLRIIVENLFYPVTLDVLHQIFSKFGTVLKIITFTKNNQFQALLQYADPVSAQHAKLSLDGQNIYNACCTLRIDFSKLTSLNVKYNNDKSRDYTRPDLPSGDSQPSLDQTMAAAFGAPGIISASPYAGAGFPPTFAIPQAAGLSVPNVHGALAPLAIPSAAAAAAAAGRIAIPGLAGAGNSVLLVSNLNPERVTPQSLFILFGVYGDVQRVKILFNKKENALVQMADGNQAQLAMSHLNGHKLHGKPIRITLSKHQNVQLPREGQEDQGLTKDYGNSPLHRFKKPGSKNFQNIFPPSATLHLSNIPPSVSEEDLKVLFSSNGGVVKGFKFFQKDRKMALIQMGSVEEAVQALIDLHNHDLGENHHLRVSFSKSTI

For series [2], the target named is T1, rMATR3 RRMs (UniProt P43243 362-592).
T1 sequence: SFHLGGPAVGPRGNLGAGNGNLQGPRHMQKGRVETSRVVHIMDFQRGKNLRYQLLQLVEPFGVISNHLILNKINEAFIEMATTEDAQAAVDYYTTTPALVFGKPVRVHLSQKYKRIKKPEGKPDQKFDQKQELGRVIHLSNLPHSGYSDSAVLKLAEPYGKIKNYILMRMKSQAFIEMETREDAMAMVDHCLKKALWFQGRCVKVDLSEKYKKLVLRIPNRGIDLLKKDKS
As to the kind of experiment: UV crosslinking competition; competes with 0.5 uM rPTBP1 at equimolar concentration; 30 C 20 min, 10 fmol RNA, UV crosslink on ice (1920 mJ), RNase A1/T1 digestion, 15% denaturing PAGE; buffer, salt and pH not stated. To be noted: protein: recombinant; (HisTrap purified); label: 32P-UTP.

B1: ATCTT2 RNA probe (ssRNA)
RNA: GAAUACGAAUUCCAUAUAUGAUCGAUAAAUAUAUGGUACCUUGCUAUCUUACAUCUUUUUACGGAUCCCAUAUAUGAUCGAUAUAUAUAAGCU
Regarding B1, the binding result in series [1] and in series [2] was “binds” in each case.
